According to article PMC11633101:
pKd: −log10 of the molar value.

Molecular target: bovine NECTIN1 with 6×his tag, purified from CHO cells (bovine)
Assay: SPR; Biacore 8K, CM5 chip, 25°C, single-cycle mode, PBS; NECTIN1 and CD46 captured on the chip, serial dilutions of BVDV E2 injected; regeneration with glycine pH 2.5

## BVDV E2 protein with 6×his tag, purified from 293F cells (from UniProt P19711 693-1066) (natural protein)
  pKd: 11.46
